The supplement of paper PMC9170038

What follows are sequences tested on MS2 coat protein (assay: apparent KD of MS2 coat protein; higher = weaker reporter binding). Settings: Eterna round: R107; input ligand: theophylline 20 uM.
Outline: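 Illumina sequencing clusters served as templates for on-chip transcription of the designed RNA switches. SNAP-549-labelled MS2 coat protein was then titrated in twofold steps from 0.7 or 1.5 nM to 3 µM, allowing 0.8–1.5 h per step at first and 10–20 min per step later. The buffer held 100 mM Tris-HCl pH 7.5, 80 mM KCl and 4 mM MgCl2, without or with constant ligand. Apparent KD is the median per design of normalised cluster binding-curve fits.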

| Sequence | apparent KD of MS2 coat protein [µM] |
| --- | --- |
| AGCAACAAGUCGGCCGCCACUCAAUAAACAUGAGGAUCACCCAUGUAAAUAACAUGAUAAUAAUAGAGGACCGGGACAGUUGCAU [JR_SSTryptoB_Sub015] | 0.0171 |
| AAUAUAAGUGUAAUUAUAUGUAUCUCUGAUACCAGACUCUCAUGUGUCCCUUGGCAGCAGUUACAUGAGGAUCACCCAUGUAUUA [JR_Nu_SSTheophyA_Sub024] | 0.0802 |
| UUGGUACAUGAGGAUCACCCAUGUACUGAAGGAGCGGGACGAAUCUCAGGUAGGUCGCAGACAUGAGGAUCACCCAUGUAUUGGU [Exclusion Arginine A GF 16] | 0.0164 |
| UCGUGUAUAUCGGAUACCAGUGAAAUCGAUACAUGAGGAUCACCCAUGUGAGUUGAUGUACACCCUUGGCAGCUGUAUAUAUCUA [snbullin] | 0.0181 |
| UUAUUUAUAAUGGAUACCAGUCGUAUGGCCCGGAAUCCUGACAUGAGGAUCACCCAUGUCGACCCUUGGCAGCUGUUAUGGGUUU [XTheo B #22] | 0.0163 |
| AACAUGAGGAUCACCCAUGUCGGGCCGGAGCGAGGACCGGUACGGCCGCCACUCGAGACAUGAGGAUCACCCAUGUAGGGCGAAA [Exclusion Tryptophan A GF21] | 0.141 |
| AGAUUCGACACGGCCGCCACUUUCAGUGGCUGGUGUCAUGGUGCACAUGAGGAUCACCCAUGUGGAAGGACCGGGUGUUGAGUCU [XTryp B #26] | 0.0218 |
| UGUGACAUGAGGAUCACCCAUGUAAGGGAAGGAGCGCCGAAUAAGGCAGGUAGGUCGCCCAAGAUAGAAGAAUAAUAAGAUUGUG [Arginine A Same State; Euphoria Solution] | 0.0399 |
| AAGACAUGAGGAUCACCCAUGUCGACAAAACGAGGACCGGUACGGCCGCCACUCGAAAGCAAAUGAGCGCAUGCGGCCUGGGUAU [Exclusion Tryp A GF2] | 0.0141 |
| UAACAUGAGGAUCACCCAUGUAUAGUCGAUACCAGCUCUGUCUAGAGCCCUUGGCAGCGACACUGGUAUCCAUGGGUGUGGAUAC [(Ms2)-(Theo)-(T)'-(M)'-(M)''] | 0.0984 |
| CAAUAUAUAUGAAGGAGCGUCGAAAAUGGGUAAACAUGAGGAUCACCCAUGUAAAGGGAACGACAGGUAGGUCGCAUAUAUAUUG [AstromonsSSArgB#8] | 0.305 |
| AUGCAUAGCGGAAGGAGCGCAAUAGAAUGACAUGAGGAUCACCCAUGUGUGUGAUGUGGAUUGCAGGUAGGUCGCCGAGUGGUAU [Exclusion - Arginine B (Freestyle 3)] | 0.0575 |
| GAGCUGAUGUAGAAAUUUUAUUUCUGAGAUACCAGUACAGAAAUGUACCCUUGGCAGCUCAGUUUUACAUGAGGAUCACCCAUGU [Ex Theophylline A 15] | 0.0156 |
| AACAUGAGGAUCACCCAUGUCGGGCCGGUGCGAGGACCGGUACGGCCGCCACUCGAGACAUGAGGAUCACCCAUGUAGGGCGAGA [Exclusion Tryptophan A GF22] | 0.0707 |
| AACAGGGUCUGAAGGAGCGCGAUCACAUGAGGAUCACCCAUGUGAAAUGGUAGAUGAUACUCGCAGGUAGGUCGCAGUACUUGAC [Same State Arginine B GF 15] | 0.127 |
| UUGUUGUUUGGAAGGAGCGUGUAAGAUUAAGAACAUGAGGAUCACCCAUGUUUUAAGGGAGCACAGGUAGGUCGCCGGGUGGUGG [11.S] | 0.0315 |
| GAAGAGAGGAUACCGUUUGUAUACAACGAUACCAGUGGUAUGUAUCACCCUUGGCAGCGUGAGACAUGAGGAUCACCCAUGUGGC [theeternabot_exclusion_MS2_Theo_A_46] | 0.0261 |
| GUCCUCGUGUCCGGUUUAGCGCAAAGCGCACGAGGACCGGUACGGCCGCCACUCGAAACAUGAGGAUCACCCAUGUGAAGAAUAA [Design 1] | 0.0218 |
| UACCGAUGAAGAAGGAGCGUGCGUGGUUCACAUGAGGAUCACCCAUGUGCUUUAUACUAGGCACAGGUAGGUCGCUUCAUCGGUA [SSAB NP+V+V2 #22] | 0.0307 |

Same assay, conditions: Eterna round: R107; input ligand: theophylline 2 mM

| Sequence | apparent KD of MS2 coat protein [µM] |
| --- | --- |
| CGCUACAUGAGGAUCACCCAUGUUACUCCGCGAGGACCGGUACGGCCGCCACUCGGCAGUUUGCGCCGCCGGAGGCACUCUUCAG [theeternabot_sameState_MS2_Trp_A_32] | 0.0337 |
| GGUUGAUGGUCGGCCGCCACUGUUGGUGCCAUGAGUUAAGUAUAGCACAUGAGGAUCACCCAUGUCAGGACCGGGACUCUACCCG [theeternabot_exclusion_MS2_Trp_B_16] | 0.0209 |
| UUCAGCUAGUCGGCCGCCACUACAUGAGCAUCAGCCAUGUUCCUAAAACACUGCUUCGGCAGUGGUAGGACCGGGACUAGCUGAG | 0.0126 |
| CGAAUAUAGACGGCCGCCACUCUACAAACAUGAGGAUCACCCAUGUUCACAUAGUGGAAACACAUGAGGACCGGGUCAUAGGCUU [#19 Same State - Tryptophan B] | 0.0239 |
| CAUAUAUAUUGAAGGAGCGACAUGAGGAUCACCCAUGUCUACCACGUCGAAAGACGCUCAUGUCAGGUAGGUCGCAAUAUAUAUG [Astros-Eli-mod5] | 0.144 |
| GGCACAUAGUCGGCCGCCACUAGAUUUUAGUGGAAUAACAUGAGGAUCACCCAUGUAUUUGGGACUAGGACCGGGACUAUGUGCC [Hyena] | 0.038 |
| GUCCACAUGAGGAUCACCCAUGUAAGUGGGCGAGGACCGGUACGGCCGCCACUCGACAUGUUGACGAAAAGUCAGCAUGAGGACA [#SwitchBubble 3 #GuTurnoff #Tail] | 0.114 |
| UGUAUGGACUGAAGGAGCGCCUCAAAAUAACUUGAGGAUCACCCAGGUAAGGCGAAAGCCGGGCAGGUAGGUCGCAGUCCAUACU [ArgBX 3] | 0.0723 |
| UAUACAUGGUAUAAAUAUAUAUAUAAGAAACGAGGACCGGUACGGCCGCCACUCGUGCCGGAAACAUGAGGAUCACCCAUGUAUU [AK1 Exclusion TrypA mod IceBolt] | 0.0496 |
| AAAACAUGAGGAUCACCACAUGACAUGAGGCGAGGACCGGUACGGCCGCCACUCGACAUACAUGAGGAUCACCCAUGUUUGUUGU [Exclusion Tryptophan A 4] | 0.46 |
| UUAUUUAACGGAAGGAGCGCGGAAAUUAAAGUGGGUAAACAUGAGGAUCACCCAUGUAAACCGCAGGUAGGUCGCCGAUAUUUAU [#22 Exclusion - Arginine B] | 0.0821 |
| ACACAUGAUAGAAGGAGCGCAAUGAACACACAUGAGGAUCACCCAUGUUUUUUUUGUGUUUUGCAGGUAGGUCGCUAACAUGAGG [Same State Arginine B 4] | 0.011 |
| UGAUACACGGGAAGGAGCGACAGGGAUAAGUCCGCACGGGCCGCACAUGAGGAUCACCCAUGUCAGGUAGGUCGCCCGUGGCGUG [Erxemarima] | 0.016 |
| AUGGAGACCUCGGCCGCCACUCUCCAUGAGGAUCUCCCAUGUAACAUGAGGAUCACCCAUGUACUGAGGACCGGGAGGUCCUUGA [Same State Tryptophan B GF 17] | 0.0101 |
| AGCAACAAGUCGGCCGCCACUCAAUAAACAUGAGGAUCACCCAUGUAAAUAACAUGAUAAUAAUAGAGGACCGGGACAGUUGCAU [JR_SSTryptoB_Sub015] | 0.0151 |
| UUGGUACAUGAGGAUCACCCAUGUACUGAAGGAGCGGGACGAAUCUCAGGUAGGUCGCAGACAUGAGGAUCACCCAUGUAUUGGU [Exclusion Arginine A GF 16] | 0.019 |
| AACAUGAGGAUCACCCAUGUCGGGCCGGAGCGAGGACCGGUACGGCCGCCACUCGAGACAUGAGGAUCACCCAUGUAGGGCGAAA [Exclusion Tryptophan A GF21] | 0.189 |
| AGAUUCGACACGGCCGCCACUUUCAGUGGCUGGUGUCAUGGUGCACAUGAGGAUCACCCAUGUGGAAGGACCGGGUGUUGAGUCU [XTryp B #26] | 0.0172 |
